Measured values from PMC12177037 (Communications Biology, 2025).

biological target: T1, lysozyme (Gallus gallus (Chicken)., UniProt P00698); test: pull-down; FLAG-tagged quenchbody from the crude IVTT mixture bound to anti-FLAG magnetic agarose beads, combined with 100 uL of 1 uM MBP or 10 uM lysozyme, 30 min, room temperature, 1200 rpm; 6 washes with PBS; eluted with 3x FLAG peptide; reducing SDS-PAGE; semi-quantitative comparison with the wild type; conditions: one partner purified
T1 construct: lysozyme, ~15 kDa on SDS-PAGE
T1 sequence (P00698 19-147): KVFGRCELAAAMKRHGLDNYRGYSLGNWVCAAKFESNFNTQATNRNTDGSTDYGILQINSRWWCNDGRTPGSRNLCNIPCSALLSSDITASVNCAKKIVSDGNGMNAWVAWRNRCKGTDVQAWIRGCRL

binding result | Binder
binds | lysozyme quenchbody (Qb-Lys) Y104W (VHH, as the VHH of m2 (nanobody chain of PDB 1ZVH in the cassette) with the stated change; source: NEBExpress cell-free E. coli protein synthesis (IVTT); not shown: Cys-tag, N-terminal, kept) VHH: DVQLVESGGGSVQAGGSLRLSCAASGYIASINYLGWFRQAPGKEREGVAAVSPAGGTPYYADSVKGRFTVSLDNAENTVYLQMNSLKPEDTALYYCAAARQGWWIPLNSYGYNYWGQGTQVTVSS
binds | lysozyme quenchbody (Qb-Lys) Y27W/Y104W/Y110W (VHH, as the VHH of m2 (nanobody chain of PDB 1ZVH in the cassette) with the stated changes; also called triple mutant Y27W, Y104W, Y110W; source: NEBExpress cell-free E. coli protein synthesis (IVTT); captured on anti-FLAG magnetic beads from the crude IVTT mixture (pull-down)) VHH: DVQLVESGGGSVQAGGSLRLSCAASGWIASINYLGWFRQAPGKEREGVAAVSPAGGTPYYADSVKGRFTVSLDNAENTVYLQMNSLKPEDTALYYCAAARQGWWIPLNSWGYNYWGQGTQVTVSS
binds | lysozyme quenchbody (Qb-Lys) Y27W/Y104W (VHH, as the VHH of m2 (nanobody chain of PDB 1ZVH in the cassette) with the stated changes; Member of the 'single, pairwise, and triple Y27W, Y104W and Y110W mutants'; the combination is counted out from that phrase; also called pairwise mutant Y27W, Y104W; source: NEBExpress cell-free E. coli protein synthesis (IVTT); captured on anti-FLAG magnetic beads from the crude IVTT mixture (pull-down)) VHH: DVQLVESGGGSVQAGGSLRLSCAASGWIASINYLGWFRQAPGKEREGVAAVSPAGGTPYYADSVKGRFTVSLDNAENTVYLQMNSLKPEDTALYYCAAARQGWWIPLNSYGYNYWGQGTQVTVSS
binds | lysozyme quenchbody (Qb-Lys) Y27W (VHH, as the VHH of m2 (nanobody chain of PDB 1ZVH in the cassette) with the stated change; source: NEBExpress cell-free E. coli protein synthesis (IVTT); not shown: Cys-tag, N-terminal, kept) VHH: DVQLVESGGGSVQAGGSLRLSCAASGWIASINYLGWFRQAPGKEREGVAAVSPAGGTPYYADSVKGRFTVSLDNAENTVYLQMNSLKPEDTALYYCAAARQGWYIPLNSYGYNYWGQGTQVTVSS
binds | lysozyme quenchbody (Qb-Lys) Y104W/Y110W (VHH, as the VHH of m2 (nanobody chain of PDB 1ZVH in the cassette) with the stated changes; Member of the 'single, pairwise, and triple Y27W, Y104W and Y110W mutants'; the combination is counted out from that phrase; also called pairwise mutant Y104W, Y110W; source: NEBExpress cell-free E. coli protein synthesis (IVTT); not shown: Cys-tag, N-terminal, kept) VHH: DVQLVESGGGSVQAGGSLRLSCAASGYIASINYLGWFRQAPGKEREGVAAVSPAGGTPYYADSVKGRFTVSLDNAENTVYLQMNSLKPEDTALYYCAAARQGWWIPLNSWGYNYWGQGTQVTVSS
binds | lysozyme quenchbody (Qb-Lys) Y27W/Y110W (VHH, as the VHH of m2 (nanobody chain of PDB 1ZVH in the cassette) with the stated changes; Member of the 'single, pairwise, and triple Y27W, Y104W and Y110W mutants'; the combination is counted out from that phrase; also called pairwise mutant Y27W, Y110W; source: NEBExpress cell-free E. coli protein synthesis (IVTT); not shown: Cys-tag, N-terminal, kept) VHH: DVQLVESGGGSVQAGGSLRLSCAASGWIASINYLGWFRQAPGKEREGVAAVSPAGGTPYYADSVKGRFTVSLDNAENTVYLQMNSLKPEDTALYYCAAARQGWYIPLNSWGYNYWGQGTQVTVSS
binds | lysozyme quenchbody (Qb-Lys) W103Y (VHH, as the VHH of m2 (nanobody chain of PDB 1ZVH in the cassette) with the stated change; source: NEBExpress cell-free E. coli protein synthesis (IVTT); not shown: Cys-tag, N-terminal, kept) VHH: DVQLVESGGGSVQAGGSLRLSCAASGYIASINYLGWFRQAPGKEREGVAAVSPAGGTPYYADSVKGRFTVSLDNAENTVYLQMNSLKPEDTALYYCAAARQGYYIPLNSYGYNYWGQGTQVTVSS

biological target: T1, lysozyme; test: fluorescence intensity plate assay at one antigen concentration (fold-sense); 20 nM TAMRA-labelled quenchbody variants in PBS/0.05% Tween-20 with and without antigen (500 nM lysozyme or MBP in Fig. 3B and 3E; concentration not stated for Fig. 3C and 3F); fold-sense = fluorescence with antigen relative to 0 nM antigen; conditions: both partners purified

fold-sense (fluorescence with antigen relative to without) [fold] | Binder
1.3 | lysozyme-binding quenchbody (Qb-Lys), wild type (VHH, the labelled, eluted form stood in the fluorescence assays; also called lysozyme quenchbody; source: NEBExpress cell-free E. coli protein synthesis (IVTT); not shown: Cys-tag, N-terminal, kept) VHH: DVQLVESGGGSVQAGGSLRLSCAASGYIASINYLGWFRQAPGKEREGVAAVSPAGGTPYYADSVKGRFTVSLDNAENTVYLQMNSLKPEDTALYYCAAARQGWYIPLNSYGYNYWGQGTQVTVSS
1.7 | lysozyme quenchbody (Qb-Lys) Y110W (VHH, as the VHH of m2 (nanobody chain of PDB 1ZVH in the cassette) with the stated change; source: NEBExpress cell-free E. coli protein synthesis (IVTT); not shown: Cys-tag, N-terminal, kept) VHH: DVQLVESGGGSVQAGGSLRLSCAASGYIASINYLGWFRQAPGKEREGVAAVSPAGGTPYYADSVKGRFTVSLDNAENTVYLQMNSLKPEDTALYYCAAARQGWYIPLNSWGYNYWGQGTQVTVSS

biological target: T1, lysozyme; test: other fluorescence titration; 20 nM TAMRA-labelled quenchbody in PBS/0.05% Tween-20 with 1-8000 nM antigen, 1 h at room temperature (legend: 60 min, 25 °C), 384-well plate, excitation 535 ± 20 nm, emission 585 ± 30 nm; fit to single site-specific binding with Hill slope; EC50 as a proxy for KD; conditions: both partners purified

EC50 [nM] | Binder
7 | lysozyme-binding quenchbody (Qb-Lys), wild type (VHH, the labelled, eluted form stood in the fluorescence assays; also called lysozyme quenchbody; source: NEBExpress cell-free E. coli protein synthesis (IVTT); not shown: Cys-tag, N-terminal, kept) VHH: DVQLVESGGGSVQAGGSLRLSCAASGYIASINYLGWFRQAPGKEREGVAAVSPAGGTPYYADSVKGRFTVSLDNAENTVYLQMNSLKPEDTALYYCAAARQGWYIPLNSYGYNYWGQGTQVTVSS
